Test results reported in patent US20180187173.

Assays:
[1] = system: ZFN pair 33488/33501 (engineered); experiment: cell_activity; details: K562 cells
[2] = system: ZFN SBS 33488 (engineered); experiment: cell_activity; details: pair with 33501, K562 cells; 37.5% in human CD34+ cells

Substance | activity ([1]; 0.005% in CD34+ cells) | activity ([1]; 0.000% in CD34+ cells) | further results
CACCATGGTGCATCTGACTCCTGAGGAGAAGACTGCTGTCA (double strand) [HBD paralog site] | – | – | activity ([1]; off-target paralog, 28.6% in CD34+ cells): 34 % indels
GGAGTCAGGTGCACCATGGTGTCTGTTT (double strand) [HBB left ZFN half-site] | – | – | activity [2]: 66.6 % indels
HBBP1 paralog site | 0.024 % indels | – | –
HBE1 paralog site | – | 0 % indels | –
HBG1 paralog site | – | 0.006 % indels | –
HBG2 paralog site | 0.013 % indels | – | –
